Variants at the floor of the assay were thinned out.
B1: TPR 5TU (parent)
chain: GGAUCUUCUCGAUCUAACAAAAAAGACAAAUCUGCCACAAAGCUUGAGAGCAUCUUCGGAUGCAGAGGCGGCAGCCUUCGGUGGCGCGAUAGCGCCAACGUUCUCAACUAUGACACGCAAAACGCGUGCUCCGUUGAAUGGAGUUUAUCAUG

Variants of: B1
Experiment: polymerase ribozyme fitness, log enrichment relative to wild type (log ratio); higher = more active; in vitro selection for triplet polymerase activity
Outline: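 Mutant libraries were PCR-built and transcribed for each subunit of a heterodimeric triplet polymerase ribozyme and selected for one round in triplicate at −7 °C, frozen, before gel excision of extended constructs and streptavidin-bead capture. Input and output libraries were Illumina-sequenced, keeping genotypes with ≥10 input reads and ≥1 read per output. Fitness is a logarithmic ratio of genotype to wild-type enrichment, in base 2, using inverse-variance-weighted replicate averages.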

Variant	polymerase ribozyme fitness (log ratio)
C18U G34A G48U C75U G94C G141U	≤ -4.2
A19C A91U C95A	≤ -4.2
A19G G86A	-1.36
A19U G80A	-0.164
A19G A24G C43A G59A	≤ -4.2
A19U A21U G46C C96A U134A	≤ -4.2
C18U A40G C57G C95U	-3.91
A19C A20C U148A	-3.05
A19U A39G G74U C85G G128C C129U	≤ -4.2
A20U A26U A29U G46A A49C A106U	≤ -4.2
C18U C54G G59A C93A G136U	≤ -4.2
A20G A26U U31G A40G C125G U151C G152A	≤ -4.2
A20C A39U G42A A91U G133U	≤ -4.2
A20G U104C G117U	-0.102
A20C A52U G68C G84A U134C	≤ -4.2
A20G A40C A49C G50A G65C G68A C87U G124U	≤ -4.2
A19U U33A G34A C79A C118U C125A C132U G133A A142C U148G	≤ -4.2
A19C A21U U101A	0.427
A20C C103G	-1.28
A19G C27U	-1.17
A19C A41G C131A A138U	≤ -4.2
A20G G68U G126U C132A	≤ -4.2
A20G G83A C129G	-3.83
A20U A29G A52G A89U C96A	≤ -4.2

Variant	polymerase ribozyme fitness (log ratio)
C18U G25C A26C C32G G50U G58C C75U A91G C114A	≤ -4.2
A20C G50C U55G C105U	≤ -4.2
A19C C43U C76A G81C A91G A106U A121C G136U A142G	≤ -4.2
A19G U31G U44A G80A C123G G141C	≤ -4.2
A19U G92C	-1.68
C18U A37U G83A C87U U90G A98C C116A G133U A137C	≤ -4.2
C18U G65U A73G C85U G141C	≤ -4.2
A19U C99U G133C U144G	-2.25
A19U G94C U145G	-0.324
A19C A47C C54A U56A C87A G100C G136A	≤ -4.2
A19G G59U C85U C95A	-1.78
A19C A52U	-1.43
A19U C35G C57U U90C C96A C132U	≤ -4.2
A20G U33A U55G C87A G140C	≤ -4.2
A20C A120G	-0.986
A20U A22U A52C G67A U127A	≤ -4.2
C18U A28U C38A A47C C85A U145C	≤ -4.2
A19C A41G G59U A91C A107G A120U	≤ -4.2
A20C A115U	-2.36
A20G U56A	-0.723
C18U G25U G42C A73U G83U C93U A106G A121C U144A	≤ -4.2
C18G U55A	-0.923
A20U A29G G46C G50C A66U G83A	≤ -4.2
A19G G94U C96U C116A C125U G133U	≤ -4.2

Variant	polymerase ribozyme fitness (log ratio)
A20U A23C A47G U77G G84C A97U C118U	≤ -4.2
C18U A121U	-1.1
A20C A28C A37U G42U G71A C85U C99G A106G C131G	≤ -4.2
C18U G62A G67A U77G C87A U101C C123U G136A	≤ -4.2
A20C C79A U82C A107C	≤ -4.2
A20G C54G U82A A98U U144A	-4.1
A20C U56A	-0.524
A20C A52G A142G	-2.02
A19U U53C C87G	≤ -4.2
A20U A29U G71U G84A	≤ -4.2
A20U A21G A30G C99A	-4.05
A20U A30G C38U G59C A60C A73U G92U	≤ -4.2
A19C G59A U144C	1.14
A20C U55A A110G	-3.9
A20C C36A C51U U55G C69G A73U G81A C96U G141U	≤ -4.2
C18U A28C C87G G124U U139G U146G	≤ -4.2
A19U A52G G94C	-1.72
A19G A23U C38U G42U G68A U82A	≤ -4.2
A19G G58C G59C	0.18
A19U U55A C63A A142U U148C	≤ -4.2
A19G G48A C75G C93A	≤ -4.2
A19C A30G C87U G128C G136U	≤ -4.2
A20C C32G G59C C85U C95G A97G G140A U151C	≤ -4.2
A19G G84A	-1.52

Variant	polymerase ribozyme fitness (log ratio)
A19G G84U	-2.39
C18G U31G A52G G80C U101C U127G	≤ -4.2
A19U U144A	-0.138
A20C A22C A39G G71A C85A G94C	≤ -4.2
A19U C51U C54A C85G C132G	≤ -4.2
A20C C54U U78A	≤ -4.2
A19U G42U A113G A121U G124C U148A	≤ -4.2
A20G G46A U146A	-1.3
A20U A26C G84U C103G A106C C108G	≤ -4.2
A19G A41U C57U G84U U146A A147U U151A	≤ -4.2
A20U A30G A41G U45A U53G C96G	≤ -4.2
C18U A19G	-1.03
C18U G84A A113G C114U	-2.6
C18G U53A U139C	≤ -4.2
A19U G25A U61A	≤ -4.2
A20C G50A C76G G80C A91U A98G	≤ -4.2
A19U A23G G84A U101G A115C	-3.62
A20C U55A C132A A137G G143A U146G	≤ -4.2
C18U A20G C87G U102G	≤ -4.2
A19G G50C C75G C85G C103A U135C	≤ -4.2
A19C C36U G70A G80U C105U G152U	-3.99
A19G A89C U134G	-3.68
A20C C27U C87U G92A U101A	-1.49
A20C A97G	-0.83

Variant	polymerase ribozyme fitness (log ratio)
A20C A21U U55A G59C C85A G126U	-0.602
A19U A73U	-0.608
A19C G65A G83C	-1.84
C18U C87U C99U A119G C125G U135G	≤ -4.2
A20G A41G C54U U56A C93G A120G U139G	-2.99
A20G G124U	-0.645
A20G U77A C85U C105U U135A A138G	≤ -4.2
A19G C57A G65A	-2.01
C18U G50U C96G U146C	-0.747
A19G C54G G70A A73G G92A A106G C116G A137G	≤ -4.2
A20G A52C	-1.28
A20U A49C G50C G92U U146G C149U	≤ -4.2
A19U A30U U56A G62C C76U	≤ -4.2
A19G G68U C79G G84A G86A U135C G140U	≤ -4.2
A19G G48C G86A C103U C108G	≤ -4.2
A19C C125U	0.16
A19C U55G C96A C108G C116G A119C	≤ -4.2
A20G A26U	-2.24
A20U A28U A64C C79U C93A C114U	≤ -4.2
A20C A47U U101A A122U	-0.358
A20G C93U	-2.59
A20C A52G C79A G133C U146G	≤ -4.2
C18U G84A	-0.579
A20U A41U C63A A106G U145A	-2.83

Variant	polymerase ribozyme fitness (log ratio)
A19U A21U C72G A89C C96G G143A	≤ -4.2
A20C A23U A28U G65U A73U G86U	≤ -4.2
A20U A21G C51U G133C	≤ -4.2
A19U C96G A142C	-2.72
C18U A52G G83C U146G	-2.39
A19G C123G	-1.22
A20C U31C A41C U55A C79A C99A C125G	≤ -4.2
A20U A60C A73G	-2.81
A20G G48A A119C A121U G136U	-3.51
A19G C96U U101G	-0.801
A19G C32A A47C G59C C85U A106C G143C	≤ -4.2
A19C A24U C57G C75U G92U C118A	-0.536
A19U A60G C72U G143U	≤ -4.2
A20U A40C G94A A115U A119C	-3.89
A20G A21U A23U C87A A91C C95A C118G G133U U135A	≤ -4.2
A20C A37C A40C G58C C95U	-4.12
A20C U61G	-1.36
A20G C27G G42C G58C G68A A121C C125U G140A	≤ -4.2
A20G A21U G59C C69A A98G U109A	≤ -4.2
A20G C85G	-2.92
A20G C85A	-2.13
A20C A39C A40G G84U G88U C93A C96A	≤ -4.2
A19U A22C C93U U145A	-1.22
A19C C32U C69A U77C C103A G143A U145A	≤ -4.2

Variant	polymerase ribozyme fitness (log ratio)
A20C C57U G59C G62C G124A	-0.9
A19G A20U C36U C96G	-3.67
A19U A26G A122G	≤ -4.2
A20C C85U	-1.04
C18U G88C C103A G112C G143C	≤ -4.2
C18U C76A U127G A137C	≤ -4.2
C18U A26G G58A C87A A97U G133A	≤ -4.2
A20C C75A C96U C118G G141A	≤ -4.2
A19U A21C C54U U134A	≤ -4.2
A19U G68C C93G C131G	≤ -4.2
A20G A30U C63A C87U U146C	≤ -4.2
C18U G86U	-2.18
A19C U53A	-1.57
C18U C108U	-3.57
A19G U55A G83A A97G G124A A142C	≤ -4.2
A20G G117A	-0.0564
A19G A122C G136C A142C	-3.74
A19U C36U G86C C93U G100A G126C	≤ -4.2
A19G A29G C38A U53A C76U G86U C99U	≤ -4.2
A19U G25U A49C U55G U56G C85U A98G A106G C118U G133A U145G	≤ -4.2
A19U A30C G42A C43G C54G G70U U77C C96G A107G	≤ -4.2
A20C C54U G70C C93A	≤ -4.2
C18U C85A U144G	0.299

Reference: the RNAGym collection of RNA variant scans (doi:10.1073/pnas.2313332121)
